Where a chain is given by its changes, count along the chain named. Names may count otherwise. Blank lines part the entries; values can stand above or below the binder they belong to.
Legend:
[1] = target: T1, Mouse BSSL, recombinant (mouse, UniProt Q64285 21-599); experiment: SPR steady state, hIgG4 S228P captured by anti-Fab
T1 construct: Bought (R&D Systems, Cat. no 5658-CE); also called mBSSL; murine BSSL
T1 sequence: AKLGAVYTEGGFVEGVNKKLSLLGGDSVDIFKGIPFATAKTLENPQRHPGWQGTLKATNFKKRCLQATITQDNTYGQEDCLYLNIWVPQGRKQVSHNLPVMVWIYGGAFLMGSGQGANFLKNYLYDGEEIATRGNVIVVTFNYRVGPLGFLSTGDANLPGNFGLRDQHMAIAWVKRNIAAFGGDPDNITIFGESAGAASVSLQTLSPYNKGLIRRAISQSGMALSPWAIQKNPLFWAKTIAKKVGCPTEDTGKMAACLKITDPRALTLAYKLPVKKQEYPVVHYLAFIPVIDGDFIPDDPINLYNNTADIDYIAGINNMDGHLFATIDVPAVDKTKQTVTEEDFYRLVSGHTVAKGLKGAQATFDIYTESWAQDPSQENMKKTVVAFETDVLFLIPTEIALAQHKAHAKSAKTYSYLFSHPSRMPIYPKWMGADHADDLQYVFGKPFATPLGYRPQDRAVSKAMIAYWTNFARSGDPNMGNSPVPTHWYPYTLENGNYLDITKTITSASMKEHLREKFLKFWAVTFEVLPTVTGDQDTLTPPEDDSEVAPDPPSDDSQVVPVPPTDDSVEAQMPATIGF
Procedure: (§1) Kinetic parameters of the hIgG4 S228P clones were determined by SPR using BIACORE® T200 (GE Healthcare). Single cycle kinetics was used to measure the affinity of the purified hIgG4 molecules to human and mouse BSSL. An anti-Fab antibody (GE Healthcare, #28958325) was immobilized on a CM5 S sensor chip by primary amine coupling using NHS-EDC chemistry. hIgG4 was captured by the anti-Fab antibody, and subsequently, five different concentrations of hBSSL (1:5 dilutions starting from 50 nM) or mBSSL (1:5 dilutions starting from 500 nM) were injected over the surface. The sensor chip surface was regenerated with 10 mM glycine-HCl pH 2.1. For binding to human BSSL, single cycle kinetic data was fitted to a 1:1 binding model and kinetic parameters were retrieved using software BlAevaluation. For mouse BSSL, a steady state analysis was performed by plotting the response level at equilibrium against each concentration, and KD values were retrieved by the BlAevalution software.

[2] = target: T2, Human BSSL (bile salt-stimulated lipase), native (human, UniProt P19835 21-753); experiment: SPR single cycle kinetics, hIgG4 S228P captured by anti-Fab
T2 construct: Native full-length protein purified from human milk (Astra Hässle AB); also called hBSSL; non-biotinylated human BSSL
T2 sequence: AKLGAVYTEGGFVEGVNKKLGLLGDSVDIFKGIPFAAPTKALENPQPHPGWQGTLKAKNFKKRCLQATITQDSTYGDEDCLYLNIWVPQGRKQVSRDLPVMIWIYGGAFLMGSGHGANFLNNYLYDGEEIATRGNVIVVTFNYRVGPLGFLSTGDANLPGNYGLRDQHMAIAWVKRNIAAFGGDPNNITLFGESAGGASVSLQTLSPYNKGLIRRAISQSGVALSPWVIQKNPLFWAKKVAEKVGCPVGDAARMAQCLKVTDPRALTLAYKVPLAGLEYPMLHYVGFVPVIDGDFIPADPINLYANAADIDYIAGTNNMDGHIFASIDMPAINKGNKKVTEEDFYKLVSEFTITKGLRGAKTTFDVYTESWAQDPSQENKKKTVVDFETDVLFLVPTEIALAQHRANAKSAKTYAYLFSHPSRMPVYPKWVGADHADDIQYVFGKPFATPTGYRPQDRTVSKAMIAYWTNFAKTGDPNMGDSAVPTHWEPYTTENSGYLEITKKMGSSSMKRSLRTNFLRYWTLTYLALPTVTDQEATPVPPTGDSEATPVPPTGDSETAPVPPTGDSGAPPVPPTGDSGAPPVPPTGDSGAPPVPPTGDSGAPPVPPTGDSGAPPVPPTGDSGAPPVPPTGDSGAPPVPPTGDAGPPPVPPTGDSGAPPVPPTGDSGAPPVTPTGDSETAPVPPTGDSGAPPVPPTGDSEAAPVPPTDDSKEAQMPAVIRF
Procedure: as §1

[3] = target: T3, Biotinylated human BSSL (human, UniProt P19835 21-753, Biotinylated on glycosacarides, 30-40 biotin/BSSL); experiment: flow cytometry displacement assay; 1.5 ug antibody, 1 ug b-hBSSL
T3 construct: hBSSL biotinylated in house; also called b-hBSSL; human BSSL-biotin
T3 sequence: T2 sequence
Procedure: (§2) The 28 BSSL-specific hIgG4 antibodies and the five reference antibodies at different concentrations (ranging from 0.5 μg to 3.0 μg per reaction; see Table 10) were added to b-hBSSL (1 μg per reaction, see Table 2) in round-bottom polystyrene tubes, lx PBS (pH 7.4) was added to a final volume of 20 μl and the antibody/b-hBSSL mixtures were incubated for 30 min. at +4° C. to facilitate binding of antibodies to BSSL. Buffy coat (50 μl) was then added to each antibody/b-hBSSL mixture and incubation continued for another 30 min at +4° C. Thereafter, 2 ml of FACS lysing solution (BD Biosciences) was added and the cells were incubated for 10 min at room temperature in order to lyse erythrocytes and fix the white blood cells. The cells were then centrifuged for 5 min. at 200×g, the resulting pellets were washed by adding 2 ml of FACS buffer (1×PBS supplemented with 1% FCS and 0.1% NaN3) and centrifuged again. Finally, the supernatants were discarded and the cells were resuspended in the last drop of liquid, approximately 50 μl.
(§3) 5 μl of BV421-labelled anti-human CD14 (BD Biosciences) and 5 μl of BB515-labelled streptavidin (BD Biosciences) was added to each tube and incubated for 30 min, at +4° C., protected from light. Thereafter, cells were washed twice with FACS buffer, resuspended in 500 μl FACS buffer, and run on BD LSRII flow cytometer (BD Biosciences). Finally, data were analyzed using FlowJo software (BD Biosciences).

[4] = target: T3, Biotinylated human BSSL; experiment: flow cytometry displacement assay; 3.0 ug antibody, 1 ug b-hBSSL
Procedure: as §2, §3

- Kd [1]: 57 nM
- Kd [2]: 2.2 nM
- percentage reduction of b-hBSSL binding to CD14+ monocytes [3]: 34%
- percentage reduction of b-hBSSL binding to CD14+ monocytes [4]: 42%
B1: S-SL048-10 hIgG4 S228P (antibody, V domains shown)
VH: QVQLVQSGAEVKKPGASVKVSCKASGYTFTSYNMHWVRQAPGQGLEWIGVINPSDGYTSYAQKFQGRVTMTRDTSTSTVYMELSSLRSEDTAVYYCARDYYGSSPLGYWGQGTLVTVSS
VL: DIQMTQSPSSLSASVGDRVTITCRASPSISYLNWYQQKPGKAPKLLIYATSRLPSGVPSRFSGSGSGTDFTLTISSLQPEDFATYYCQQRSSSPTFGQGTKLEIK
notes: Tested as human IgG4 S228P

- Kd [2]: 1.8 nM
B2: S-SL048-134 hIgG4 S228P (antibody, V domains shown)
VH: B1 VH with I48M, Y57A, Q65K
VL: B1 VL with R52K, S93Y
notes: Tested as human IgG4 S228P

- Kd [1]: 168 nM
- Kd [2]: 5.9 nM
B3: S-SL048-110 hIgG4 S228P (antibody, V domains shown)
VH: B1 VH with I48M, S54G, Y57A, A61N, Q65K
VL: B1 VL with R24S, P27Q, N33H, T50A, P54A, Q88H, S93T
notes: Tested as human IgG4 S228P

- Kd [1]: 98 nM
- Kd [2]: 1.2 nM
- percentage reduction of b-hBSSL binding to CD14+ monocytes [3]: 37%
- percentage reduction of b-hBSSL binding to CD14+ monocytes [4]: 49%
B4: S-SL048-107 hIgG4 S228P (antibody, V domains shown)
VH: B1 VH with I48M, S54G, Y57A, A61N
VL: B1 VL with R52S
notes: Tested as human IgG4 S228P

- Kd [1]: 167 nM
- Kd [2]: 6.8 nM
B5: S-SL048-86 hIgG4 S228P (antibody, V domains shown)
VH: B1 VH with I48M, S54G, Y57A
VL: B1 VL with P27Q, N33H, R52S, P54Q, Q88H, S93Y
notes: Tested as human IgG4 S228P

- Kd [1]: 186 nM
- Kd [2]: 6 nM
B6: S-SL048-115 hIgG4 S228P (antibody, V domains shown)
VH: B1 VH with I48M, Y57A, Q65K
VL: B1 VL with P27Q, L32M, N33H, T50A, R52K, Q88H
notes: Tested as human IgG4 S228P

- Kd [1]: 137 nM
- Kd [2]: 1.2 nM
- percentage reduction of b-hBSSL binding to CD14+ monocytes [3]: 37%
- percentage reduction of b-hBSSL binding to CD14+ monocytes [4]: 55%
B7: S-SL048-43 hIgG4 S228P (antibody, V domains shown)
VH: B1 VH with I48M, S54G, Y57A, A61T
VL: B1 VL with L32M, T50A, R52S
notes: Tested as human IgG4 S228P

- Kd [1]: 111 nM
- Kd [2]: 3.3 nM
- percentage reduction of b-hBSSL binding to CD14+ monocytes [3]: 2%
- percentage reduction of b-hBSSL binding to CD14+ monocytes [4]: 44%
B8: S-SL048-104 hIgG4 S228P (antibody, V domains shown)
VH: B1 VH with I48M, S54G, Y57A, A61D, Q65K
VL: B1 VL with R24S, P27S, N33H, T50A, P54A, Q88H, S93T
notes: Tested as human IgG4 S228P

- Kd [2]: 8.5 nM
B9: S-SL048-47 hIgG4 S228P (antibody, V domains shown)
VH: B1 VH with S54G, D55G, A61T
VL: B1 VL with R24S, L32M, P54Q, S93T
notes: Tested as human IgG4 S228P

- Kd [1]: 60 nM
- Kd [2]: 4.4 nM
- percentage reduction of b-hBSSL binding to CD14+ monocytes [3]: 31%
- percentage reduction of b-hBSSL binding to CD14+ monocytes [4]: 62%
B10: S-SL048-81 hIgG4 S228P (antibody, V domains shown)
VH: B1 VH with S54G, Y57A
VL: B1 VL with P27S, L32M, N33H, T50A, R52S, P54Q, Q88H
notes: Tested as human IgG4 S228P

- Kd [1]: 48 nM
- Kd [2]: 5 nM
- percentage reduction of b-hBSSL binding to CD14+ monocytes [3]: 20%
- percentage reduction of b-hBSSL binding to CD14+ monocytes [4]: 52%
B11: S-SL048-79 hIgG4 S228P (antibody, V domains shown)
VH: B1 VH with I48M, Y57A
VL: B1 VL with R24S, P27Q, T50A, Q88H, S93Y
notes: Tested as human IgG4 S228P

- Kd [1]: 57 nM
- Kd [2]: 6.4 nM
B12: S-SL048-12 hIgG4 S228P (antibody, V domains shown)
VH: B1 VH with I48M, Y57A, A61T
VL: B1 VL with R24S, P27S, L32M, N33H, T50A, P54A, Q88H, S93T, P94S
notes: Tested as human IgG4 S228P

- Kd [1]: 82 nM
- Kd [2]: 9.6 nM
B13: S-SL048-45 hIgG4 S228P (antibody, V domains shown)
VH: B1 VH with I48M, Y57A, A61T
VL: B1 VL with P27Q, N33H, T50A, P54A, Q88H, S93T
notes: Tested as human IgG4 S228P

- Kd [1]: 237 nM
- Kd [2]: 6 nM
B14: S-SL048-105 hIgG4 S228P (antibody, V domains shown)
VH: B1 VH with I48M, Y57A
VL: B1 VL with R24S, P27Q, N33H, T50A, R52K, Q88H, S93Y
notes: Tested as human IgG4 S228P

- Kd [1]: 149 nM
- Kd [2]: 1.3 nM
- percentage reduction of b-hBSSL binding to CD14+ monocytes [3]: 41%
- percentage reduction of b-hBSSL binding to CD14+ monocytes [4]: 48%
B15: S-SL048-108 hIgG4 S228P (antibody, V domains shown)
VH: B1 VH with Y57A, Q65K
VL: B1 VL with R24S, R52S, P54A
notes: Tested as human IgG4 S228P

- Kd [1]: 164 nM
B16: S-SL048-75 hIgG4 S228P (antibody, V domains shown)
VH: B1 VH with I48M, N52Y, S54G, D55G, Q65K
VL: B1 VL with P27Q, R52N, P54Q, Q88H
notes: Tested as human IgG4 S228P

- Kd [1]: 68 nM
- Kd [2]: 2.3 nM
- percentage reduction of b-hBSSL binding to CD14+ monocytes [3]: 58%
- percentage reduction of b-hBSSL binding to CD14+ monocytes [4]: 61%
B17: S-SL048-18 hIgG4 S228P (antibody, V domains shown)
VH: B1 VH with I48M, Y57A, A61T, Q65K
VL: B1 VL with P27S, P54Q, Q88H, S93T
notes: Tested as human IgG4 S228P

- Kd [1]: 57 nM
- Kd [2]: 0.9 nM
B18: S-SL048-13 hIgG4 S228P (antibody, V domains shown)
VH: B1 VH with Y57A, A61T
VL: B1 VL with R24S, R52S, P54A
notes: Tested as human IgG4 S228P

- Kd [2]: 5 nM
- percentage reduction of b-hBSSL binding to CD14+ monocytes [3]: 28%
- percentage reduction of b-hBSSL binding to CD14+ monocytes [4]: 54%
B19: S-SL048-112 hIgG4 S228P (antibody, V domains shown)
VH: B1 VH with V50I, N52Y, S54G, Y57A, A61N, Q65K
VL: B1 VL with P27S, L32M, N33H, P54A, Q88H, S93T
notes: Tested as human IgG4 S228P

- Kd [2]: 6 nM
B20: S-SL048-89 hIgG4 S228P (antibody, V domains shown)
VH: B1 VH with I48M, D55S, Y57S, A61T
VL: B1 VL with S93N
notes: Tested as human IgG4 S228P

- Kd [1]: 68 nM
- Kd [2]: 4.3 nM
- percentage reduction of b-hBSSL binding to CD14+ monocytes [3]: 16%
- percentage reduction of b-hBSSL binding to CD14+ monocytes [4]: 36%
B21: S-SL048-17 hIgG4 S228P (antibody, V domains shown)
VH: B1 VH with I48M, S54G, A61T, Q65K
VL: B1 VL with P27Q, T50A, R52K
notes: Tested as human IgG4 S228P

— patent US20220267469A1 (LIPUM, published 2022)
